Data as given in the DeepSol protein solubility set.

Assay: soluble on expression in E. coli; label from the status in PepcDB or PDB records

Sequence | soluble on expression in E. coli
MGHHHHHHSHMDIQKSENEDDSEWEDVDDEKGDSNDDYDSAGLLSDEDCMSVPGKTHRAIADHLFWSEETKSRFTEYSMTSSVMRRNEQLTLHDERFEKFYEQYDDDEIGALDNAELEGSIQVDSNRLQEVLNDYYKEKAENCVKLNTLEPLEDQDLPMNELDESEEEEMITVVLEEAKEKWDCESICSTYSNLYNHPQLIKYQPKPKQIRISSKTGIPLNVLPKKGLTAKQTERIQMINGSDLPKVSTQPRSKNESKEDKRARKQAIKEERKERRVEKKANKLAFKLEKRRQEKELLNLKKNVEGLKL | not soluble
MADSPNRLNRAKIDSTTMKDPRVLNNLKLRELLLPKFTSLWEIQTEVTVDNRTILLTWMHLLCESFELDKSVFPLSVSILDRYLCKKQGTKKTLQKIGAACVLIGSKIRTVKPMTVSKLTYLSCDCFTNLELINQEKDILEALKWDTEAVLATDFLIPLCNALKIPEDLWPQLYEAASTTICKALIQPNIALLSPGLICAGGLLTTIETDNTNCRPWTCYLEDLSSILNFSTNTVRTVKDQVSEAFSLYDLEIL | soluble
MSSTAGGEVSINSGDLLLGTLSTSITKLEQQIRATQLSQKKLNSDCETMAEYLRDLSEYKQPVDLLPYVGKLNDSTIRVNNTHQKLDDLLERLTKLQRQIARETYKKKNSIKEQEPPVQPEN | not soluble
SPSPWGWFAVTACGAQRNNFEEPVALQEMDTSNGVLLPFYDPDSSIVYLCGKGDSSIRYFEITDEPPFVHYLNTFSSKEPQRGMGFMPKRGLDVSKCEIARFYKLHERKCEPIIMTVPRKSDLFQDDLYPDTPGPEPALEADEWLSGQDAEPVLISLRDGYVPPKHRELRVTKRNILDVRPPSGPRRSQSASDAPLSQHTLETLLEEIKALRERVQAQEQRITALENMLCELVDGTD | soluble
MAQTNLSFNPSPRYKSKKGWYKDTPPKEKGGMPTEVEIAGPIVIENKFIDPKTNTEKLIITDEDQKEIVESSDILTTQKLPSLMKYGFSINEKYTKDLGYALQQMRNQLPISYLYEGVGILETPFGPIVSLSEIYTTKEFDNKSPSDAICDNAYDLTPKGTFDNWFNMYLKEVKGSLLLELAVVFGISALVTSFLKHKHETEFAGIIFSFTGQSSTGKSTAASLAVSVAGNPTKGNETLFRNWNATRNALEGYLSNNFGIPIVFDELSSATFRDTTGLLYSITEGQGRQRSNVHGEVKTPKNWGTSVISTSEHSIFNDSAQNDGLRVRTIEINEQFTTNATNADNIKKAVALNYGHVLPLVAKYLINREDEVIQWFYKEVDWFEAKLKDDKSNTGNRMFKRYAVITTSAKILGRVLATDIDIAKIRDYFIDYHGHTISERSLADKAIDVIIQFVAQNRGKFSDEGALKNMFENYGLISLKDDHIEVKMIANVFKQMLNNHQFQDVNNVVNALRDKGFILADRGRQTTKRSVKDNSGKKQSLVFYHLKLDVEFASILGLTKDKSLIQNWTPANDNKAAKELFKSANEGIGPSGVHEDFLEHHHHHH | not soluble
MAKSEEIIRERYKVMAPRIIKALNQRNFEAYFCETSEKAVECALSLIPQGASVAWGGSMTLEEIGLIQRLKEGNYQVIDRDTAKSQEERFSLMRQALLSDVYLASVNAMSEDGIMVNIDGRGNRISAIAFGPKTVILVVGMNKICRDLESARKRAHTYAAPNNALRLGLELPCTKTGCCFDCNKNNPSSICAQIVEMHSSIVPGRIKVILVGENLGL | soluble
TKDFGYSFNANYATNTNEVKALGPGNAPIISTGSVDHAYYITKVGEPIGCYYLLVQDGIFSNEEELKKYPHFSNTQPGDFRFVDVDGDGVMDLDKDRTIVGNYMPDFTYGFGGKVWYKGIDLDFNFQGVYGNEILNLNRRYIDNLEGNTNGTTIALNRWKSADNPGNGQVNRANRKSKGYNGRTSTWHLEDGSYLRLQNVTLGYTLPQNLTRRFFVEKLRVYVSGQNLWTSTNYGGYNPEVNARPSNSLSPGEDYGTYPLAKTFLFGLNITL | not soluble
MKVDLNADAGESYGAFAYGHDREIFPLVSSANLACGFHGGSPGRILEAVRLAKAHGVAVGAHPGFPDLVGFGRREMALSPEEVYADVLYQIGALSAFLKAEGLPLHHVKPHGALYLKACRDRETARAIALAVKAFDPGLPLVVLPGTVYEEEARKAGLRVVLEAFPERAYLRSGQLAPRSMPGSWITDPEEAARRALRMVLEGKVEALDGGEVAVRADTLCIHGDNPNAPEVARAVREALEQAGVEVRAF | soluble
SVKVVIEADGGSRGNPGPAGYGAVVWTADHSTVLAESKQAIGRATNNVAEYRGLIAGLDDAVKLGATEAAVLMDSKLVVEQMSGRWKVKHPDLLKLYVQAQALASQFRRINYEWVPRARNTYADRLANDAMDAAAQSAAAD | soluble
MGSDKIHHHHHHRYSLLYVPNSFIVPGGRFREFYYWDAYWIIKGLIASDMYNTTRSMIRNLASMVDKYGFVPNGGRVYYLQRSQPPFLAAMVYELYEATNDKAFVAELLPTLLKELNFWNEKRMTDVQMNGKSFKVYQYKTASNVPRPESYRVDTQNSAKLANGADQQQFYQDLASAAESGWDFSTRWFSDYKTLTSIETTKVLPVDLNGLLCWNMDIMEYLYEQIGDTKNSQIFRNKRADFRDTVQNVFYNRTDGTWYDYNLRTQSHNPRFYTSTAVPLFTNCYNTLNTGKSQKVFDYMDKMGVFTYPGGIPTSMSQESDQQWDFPNGWSPNNHMIIEGLRKSANPEMQDKGFLIASKWVMGNFRVFYETGHMWEKYNVIGSYPQPGSGGEYDVQDGFGWSNGAILDLLLTYNDRLFVPENFVNTTVTPSVESTTKSAPKYAKLPWVLVFAFMIRQLFNY | not soluble
MKEKKLNLKKHLNTVVTLNSDYLNLLDLMQITNANFPIGTFSHSFGVETYIRKDIVFDGESLIKALLLYMNEQLLHGDLLAIYQIFKLLPKQKINAIWEIDQMINFQGLARETREGQRRIGQQMVKIYNELFNCELLVEYAERIKNKKSYGNPAVAFALLAMHLKIDLKTALYTHLYSTVAALTQNCVRAIPLGQVKGQKIIYQLKHVYFDDIVNKVFTLDFKTDFCKNIPGLEIAQMEHEDTPVRLFMSLEHHHHHH | not soluble
GSGMEQFPKETVVESSGPKVLETAEEIQERRQEVLTRYQSFKERVAERGQKLEDSYHLQVFKRDADDLGKWIMEKVNILTDKSYEDPTNIQGKYQKHQSLEAEVQTKSRLMSELEKTREERFTMGHSAHEETKAHIEELRHLWDLLLELTLEKGDQLLRAL | soluble
MSLYKIITSDLDETLLRQDGSISSANVAAIAAASKRGVKFVPNTGRSFLSIQPLLKTLNLYQRPNEYVVSYNGGVVVENQDNRVIVSNEMPYEEAAKAFAIMSEFDVDIHIYTLDHLFIYRPRADDRAYLQTRGVTFTEMTGAFDQFRNAQIMKVIVMNPDVMVRQQVYAAIKAAFTEINCTYSSGIYMEVNHAGVDKGRAILDLGDKLGIKADEIMAIGDNANDLGMLTKVGLPVSVANGIDDVKQVAKFVTPHDYERGVADAIETFILEGHHHHHH | soluble
MGSSHHHHHHSSGLVPRGSNLKIKLQKRRDEVNTCLCIGLDPDEADIKSFMQSEKQNGYQSVKKNLSNSGSSSSSSNSSSGKGELFAPQMGGQMLLAETPPKEAQEKDEFFYFFNHFCFYIINETKEYALAYKMNFAFYLPYGSLGVDVLKNVFDYLHHLNVPTILDIKMNDIGNTVKHYRKFIFDYLRSDSCTANIYMGTQMLRDICLDEECKRYYSTFVLVKTTNADSHIFQNRLSLDGKEAYVVIAEEVQKMAKQLHLEENGEFVGFVVGANCYDEIKKIRELFPDCYILAPGVGAQKGDLRKMLCNGYSKNYEKVLINVGRAITKSGSPQQAAREYHQQIKEVLAELQE | soluble
EVQLQQSGAELVRPGTSVKLSCKASGYSFTNYWMNWLRQRPGQGLDWIGMIHPSDSETRLNQKFKDKATLTVDRSSSTAYIQLSSPTSEDSAVYYCARDDYDGAFWGQGTLVTVSAAKTTPPSVYPLAPGSAAQTNSMVTLGCLVKGYFPAPVTVTWNSGSLSSGVHTFPAVLQSDLYTLSSSVTVPSSTWPSETVTCNVAHPASSTKVDKKIVPRDC | soluble
MGSDKIHHHHHHMNDLLKVIHNRASIRKFTGEHIPESDMEQIMSAAQSVPSINNYQPVTYVEITDQSVKDQAADLVNMPYVASSDRFFVILADYHKLLVGFEGKEREIAQTNLSAYNIAEGAALSAGVSAYAAIIAAESLGYGGVTMAGPVRAFQIYENYLDLPEMTKVVFTLALGVPDGHPGVKPKLPLSTFWQKDSYDTNVIDQGIADYNKTMRSYYESRNIDENWTEHNKKALTKAKDTTALTEYAKRKGFNLK | not soluble
MIMTNINTACVKNNASYQLNNALPNKETISSNFCERLEQWGNKSVNNGEERAIAVERIKEAYNSNMASLDLSYLDLSELPPIPSTVNTLNLENNCLTCLDLADNASLVNINLSVNKINTITFPKEPKLENIYINHNNLESLDLKNQHSLVNLEAQNNSLKKLEHHHHHH | not soluble
MTTKNTLQPTEAAYIAGFLDGDGSIYAKLIPRPDYKDIKYQVSLAISFIQRKDKFPYLQDIYDQLGKRGNLRKDRGDGIADYTIIGSTHLSIILPDLVPYLRIKKKQANRILHIINLYPQAQKNPSKFLDLVKIVDDVQNLNKRADELKSTNYDRLLEEFLKAGKIESSPTGSGSGSKHPTLTLPTTTSQENLPNGSGSGSGTMTTKNTLQPTEAAYIAGFLDGDGSIYAKLIPRPDYKDIKYQVSLAISFIQRKDKFPYLQDIYDQLGKRGNLRKDRGDGIADYTIIGSTHLSIILPDLVPYLRIKKKQANRILHIINLYPQAQKNPSKFLDLVKIVDDVQNLNKRADELKSTNYDRLLEEFLKAGKIESSP | soluble
MIVDLPDTTTTAVNKKLDELREKIGAVAMGRVLTLIIAPDSEAMLEESIEAANDASHEHPSRIIVTMRGDPYADRPRLDAQLRVGADAGAGEFVVLRLSGPLAGHADSVVIPFLLPDIPVVAWWPDIAPAVPAQDALGKLAIRRITDATNAIDPLSAIKSRLAGYGAGDTDLAWSRITYWRALLTSAVDQPRHEPIESALVSGLKTEPALDVLAGWLASRIEGPVRRAVGELKVELVRNSETIVLSRPQEGITATLTRTGKPDALVPLARRVTGECLAEDLRRLDPDEIYCAALEGIKKVQYR | not soluble
MNTPLKRFFKIGYVIENFLHPYHNKKLLPLSRGVNIKGIFVLLNTLWRVFQDGSLQDLWSFT | not soluble
MRGSHHHHHHGSLVPRGSMVAADAPAAGTDITNQLTNVTVGIDSGTTVYPHQAGYVKLNYGFSVPNSAVKGDTFKITVPKELNLNGVTSTAKVPPIMAGDQVLANGVIDSDGNVIYTFTDYVNTKDDVKATLTMPAYIDPENVKKTGNVTLATGIGSTTANKTVLVDYEKYGKFYNLSIKGTIDQIDKTNNTYRQTIYVNPSGDNVIAPVLTGNLKPNTDSNALIDQQNTSIKVYKVDNAADLSESYFVNPENFEDVTNSVNITFPNPNQYKVEFNTPDDQITTPYIVVVNGHIDPNSKGDLALRSTLYGYNSNIIWRSMSWDNEVAFNNGSGSGDGIDKPVVPEQPDEPGEIEPIPEK | soluble
